Measured values taken from US20200157212A1 (Pfizer, published 2020).
Substitutions are numbered along the chain they refer to.

T1: Terbium (Tb) labeled-SNAP tagged ROBO2 expressed on HEK293 cells (Homo sapiens (Human), UniProt Q9HCK4 22-1378, terbium label on the SNAP tag)
T1 construct: also called Tb-labeled ROBO2 cells; ROBO2 expressing cells; not shown: SNAP tag
T1 sequence: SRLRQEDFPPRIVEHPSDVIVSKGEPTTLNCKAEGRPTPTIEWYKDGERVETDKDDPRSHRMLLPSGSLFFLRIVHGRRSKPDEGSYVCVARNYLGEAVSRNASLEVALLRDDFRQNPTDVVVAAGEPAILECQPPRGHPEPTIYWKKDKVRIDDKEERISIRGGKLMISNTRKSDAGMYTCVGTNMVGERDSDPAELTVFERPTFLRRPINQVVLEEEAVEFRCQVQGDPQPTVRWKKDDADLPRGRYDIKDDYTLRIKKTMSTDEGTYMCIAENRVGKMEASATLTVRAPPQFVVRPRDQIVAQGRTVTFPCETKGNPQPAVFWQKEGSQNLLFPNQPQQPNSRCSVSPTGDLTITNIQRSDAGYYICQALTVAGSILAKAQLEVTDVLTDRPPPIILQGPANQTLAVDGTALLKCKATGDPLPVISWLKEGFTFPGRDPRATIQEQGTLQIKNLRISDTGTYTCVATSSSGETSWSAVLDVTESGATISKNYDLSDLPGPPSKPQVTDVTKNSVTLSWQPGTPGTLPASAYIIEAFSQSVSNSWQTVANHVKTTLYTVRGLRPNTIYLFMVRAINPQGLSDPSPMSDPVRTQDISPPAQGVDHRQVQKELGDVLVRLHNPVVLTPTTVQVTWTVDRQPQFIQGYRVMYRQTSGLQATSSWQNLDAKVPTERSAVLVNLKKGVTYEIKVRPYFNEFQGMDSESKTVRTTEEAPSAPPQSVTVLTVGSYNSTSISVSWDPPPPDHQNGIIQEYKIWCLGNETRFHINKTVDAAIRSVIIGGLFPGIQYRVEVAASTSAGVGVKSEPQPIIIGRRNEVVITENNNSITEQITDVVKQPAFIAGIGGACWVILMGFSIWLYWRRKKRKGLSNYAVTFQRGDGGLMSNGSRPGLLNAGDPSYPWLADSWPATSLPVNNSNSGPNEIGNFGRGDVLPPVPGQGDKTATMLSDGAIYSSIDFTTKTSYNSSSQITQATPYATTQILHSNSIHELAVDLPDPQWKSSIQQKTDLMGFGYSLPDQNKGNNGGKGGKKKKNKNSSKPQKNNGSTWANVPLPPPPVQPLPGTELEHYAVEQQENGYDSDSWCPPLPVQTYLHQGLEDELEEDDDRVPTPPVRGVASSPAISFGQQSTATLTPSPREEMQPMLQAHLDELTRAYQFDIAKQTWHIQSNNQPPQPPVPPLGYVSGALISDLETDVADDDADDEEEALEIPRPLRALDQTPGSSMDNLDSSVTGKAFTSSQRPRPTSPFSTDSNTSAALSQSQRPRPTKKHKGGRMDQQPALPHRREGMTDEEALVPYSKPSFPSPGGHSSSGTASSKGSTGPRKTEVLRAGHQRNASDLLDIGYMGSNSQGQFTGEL

T2: Human ROBO2 overexpressed on HEK293 cells (human, UniProt Q9HCK4 22-1378)
T2 construct: also called ROBO2 cells; native ROBO2
T2 sequence: T1 sequence

T3: Human ROBO2 Ig1-Ig2-His (human, UniProt Q9HCK4 31-220)
T3 construct: the His tag is named only in the SPR paragraphs; the Octet and ELISA paragraphs print 'ROBO2 Ig1-Ig2' without a tag; also called ROBO2 Ig1-2; Human ROBO2 Ig 1,2
T3 sequence: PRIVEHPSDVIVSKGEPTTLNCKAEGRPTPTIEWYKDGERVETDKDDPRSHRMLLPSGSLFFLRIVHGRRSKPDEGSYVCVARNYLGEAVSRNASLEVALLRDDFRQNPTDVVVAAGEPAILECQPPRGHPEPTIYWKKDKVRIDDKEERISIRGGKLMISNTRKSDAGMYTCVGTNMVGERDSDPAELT

B1: Ab1 (antibody, human IgG1, kappa, V domains shown)
VH: EVQLVQSGAEVKKPGASVKVSCKASGYTFTGYDMHWVRQAPGQGLEWMGWINPNSGATNFPQKFQGRVTMTRDTSITTAYMDLSRLRSDDTAVYYCARESGDDAFDIWGQGTMVTVSS
VL: DIVMTQSPSSLSASVGDRVTITCRASQKISSYLNWYQQKPGKAPKLLIYAASSLQSGVPSRFSGSGSGTDFTLTISSLQPEDFATYYCQQSYSTSFGGGTKVEIKR
notes: full-length human IgG
B2: Ab13 (antibody, human IgG1, kappa, V domains shown)
VH: B1 VH
VL: B1 VL with K28S, S56D
notes: full-length human IgG
B3: Ab123 (antibody, human IgG1, kappa, V domains shown)
VH: B1 VH with D33Y
VL: B1 VL with K28S, Y92V, S93G, T94L, S95F
notes: full-length human IgG
B4: Ab112 (antibody, human IgG1, kappa, V domains shown)
VH: B1 VH with D33Y
VL: B1 VL with K28S, Y92V, S93G, T94L
notes: full-length human IgG
B5: Ab21 (antibody, human IgG1, kappa, V domains shown)
VH: B1 VH
VL: B1 VL with K28S, S56Y
notes: full-length human IgG
B6: Ab9 (antibody, human IgG1, kappa, V domains shown)
VH: B1 VH
VL: B1 VL with K28R
notes: full-length human IgG
B7: Ab96 (antibody, human IgG1, kappa, V domains shown)
VH: B1 VH with D33Y, N54K, S55N, A57D, N59E
VL: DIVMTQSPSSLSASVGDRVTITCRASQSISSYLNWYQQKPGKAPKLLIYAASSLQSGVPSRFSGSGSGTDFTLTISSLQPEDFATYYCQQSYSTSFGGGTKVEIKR
notes: full-length human IgG
B8: Ab17 (antibody, human IgG1, kappa, V domains shown)
VH: B1 VH
VL: B1 VL with K28S, S56E
notes: full-length human IgG

Columns and labels:
[1] = target: T1, Terbium (Tb) labeled-SNAP tagged ROBO2 …; test: HTRF, 5 nM d2-SLIT2-N on Tb-SNAP-ROBO2 HEK293 cells, 1 nM antibody
Procedure: (§1) In this assay, terbium (Tb) labeled-SNAP tagged ROBO2 expressing HEK293 cells were incubated with 5 nM d2-labeled SLIT-2N in the presence of 1 nM anti-ROBO2 antibodies for 1 hour. After incubation, fluorescence at 665 nm and 620 nm was measured on an Envision multilabel plate reader. […] Maximal signal was defined as the HTRF ratio of Tb-labeled ROBO2 cells with d2-labeled SLIT2-N in the absence of antibody, the minimum signal was defined as the HTRF ratio of Tb-labeled ROBO2 expressing HEK293 cells only. One nanomolar (nM) parental antibody, 93H2, was unable to block the HTRF assay, therefore this concentration was selected to identify clones with a higher affinity than 93H2 (Table 2, HTRF Ratio column). […] Antibodies derived from chain (Abcs series) or CDR shuffling (CTIR-2 series) were evaluated in 11-point, 5-fold dilution series with a top concentration of 1500 nM (Table 2 HTRF IC₅₀).
(§2) HTRF assays were run with 5 nM d2-labeled SLIT2-N and antibodies were added at 1 nM. […] Antibodies derived from chain (Abcs series) or CDR shuffling (CTIR-2 series) were evaluated in 11-point, 5-fold dilution series with a top concentration of 1500 nM, N.T. = not tested; ^cFold selectivity was calculated as Geometric Mean Fluorescent Intensity (Geo MFI) of ROBO2/Geo MFI of ROBO1 binding.

[2] = target: T2, Human ROBO2 overexpressed on HEK293 …; test: flow cytometry on HEK293 cells overexpressing human ROBO2; N.B. = No binding to ROBO2
Procedure: The parental 93H2 antibody was highly ROBO2 specific, therefore affinity matured antibodies with single point neutralizing activity were screened by flow cytometry to ensure ROBO2 selectivity had been maintained. […] Binding of the antibodies was detected using a secondary fluorochrome conjugated anti-human IgG F(ab′)₂ antibody and samples were analyzed on a Fortessa cytometer (BD Biosciences). The fold ROBO2 selectivity was calculated as the geometric mean fluorescence intensity (Geo MFI) with ROBO2 cells/Geo MFI with ROBO1 cells. A fold change higher than 3 was considered to be ROBO2 specific (Table 2, Fold Selectivity). Some affinity matured clones had increased ROBO1 reactivity, for example Abcs 55, CTI-R2-10 and CTIR2-13.
Table 2 is a summary of assays used to screen antibodies against ROBO1 and/or ROBO2 to identify an antibody that specifically recognized ROBO2 but not ROBO1 with high affinity. […] Full dose curves were performed in the same assay for select antibodies. Recognition of native, surface expressed protein and ROBO2 selectivity was evaluated by flow cytometry. […] Anything with a value of greater than 3 was deemed to be selective for ROBO2. Outcomes of the various screening assays conducted for each antibody are highlighted in the final column.

[3] = target: T3, Human ROBO2 Ig1-Ig2-His; test: Octet (BLI), relative Kd
[4] = target: T1, Terbium (Tb) labeled-SNAP tagged ROBO2 …; test: HTRF competition, competitor d2-SLIT2-N, ROBO2 HEK293 cells
Procedure: as §1, with “Antibodies generated as a result of the affinity maturation campaign were screened by numerous assays for neutralization of SLIT2-N binding, selective binding to ROBO2 over ROBO1, and inhibition of SLIT2-N functional activity (see Table 2). A ROBO2-SLIT2-N homogenous time resolved fluorescence (HTRF) assay was used to identify antibodies that were capable of blocking SLIT2-N binding to ROBO2. In” for “In”

[5] = target: T2, Human ROBO2 overexpressed on HEK293 …; test: flow cytometry, Geo MFI ROBO2/ROBO1 HEK293 cells, 0.1 µg/ml
Procedure: Binding of the antibodies was detected using a secondary fluorochrome conjugated anti-human IgG F(ab′)₂ antibody and samples were analyzed on a Fortessa cytometer (BD Biosciences). The fold ROBO2 selectivity was calculated as the geometric mean fluorescence intensity (Geo MFI) with ROBO2 cells/Geo MFI with ROBO1 cells. A fold change higher than 3 was considered to be ROBO2 specific (Table 2, Fold Selectivity). Some affinity matured clones had increased ROBO1 reactivity, for example Abcs 55, CTI-R2-10 and CTIR2-13.
as §2, with “binding. […] Outcomes: results are listed in order of assays listed in the table (left to right), I.A. = Improved Affinity” for “binding.”

Binder	HTRF Ratio [1]	binding result [2]	Kd [3] [nM]	IC50 [4] [nM]	Fold Selectivity for ROBO2/ROBO1 [5] [fold]
B1	14000	no binding (tested: 0.1 µg/ml)	–	–	–
B2	13800	no binding (tested: 0.1 µg/ml)	–	–	–
B3	7710	–	1.4	0.26	80.5
B4	7300	–	–	0.174	39.2
B5	13100	no binding (tested: 0.1 µg/ml)	–	–	–
B6	13600	no binding (tested: 0.1 µg/ml)	–	–	–
B7	3680	–	1.2	0.166	35
B8	13500	no binding (tested: 0.1 µg/ml)	–	–	–
